{"source": "patent US20200010818", "about": "“EVALUATION AND IMPROVEMENT OF NUCLEASE CLEAVAGE SPECIFICITY” (President and Fellows of Harvard College, published 2020)", "data": [{"biological_target": "T1, VF2468 ZFN heterodimer (UniProt P14870;P14870 SEQ:1-324,SEQ:1-324)", "T1 sequence (P14870 other isoform, or with tags, fused parts or gaps, chain 1 of 2)": "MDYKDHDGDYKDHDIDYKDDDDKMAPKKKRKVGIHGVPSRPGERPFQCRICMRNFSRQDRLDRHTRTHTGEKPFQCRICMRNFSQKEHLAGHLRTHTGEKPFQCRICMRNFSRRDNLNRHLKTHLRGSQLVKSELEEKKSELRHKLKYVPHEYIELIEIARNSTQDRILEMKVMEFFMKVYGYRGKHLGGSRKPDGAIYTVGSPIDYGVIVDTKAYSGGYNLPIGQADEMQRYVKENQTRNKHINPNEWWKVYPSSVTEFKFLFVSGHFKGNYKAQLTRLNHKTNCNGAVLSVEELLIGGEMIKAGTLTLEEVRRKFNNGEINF", "T1 sequence (P14870 other isoform, or with tags, fused parts or gaps, chain 2 of 2)": "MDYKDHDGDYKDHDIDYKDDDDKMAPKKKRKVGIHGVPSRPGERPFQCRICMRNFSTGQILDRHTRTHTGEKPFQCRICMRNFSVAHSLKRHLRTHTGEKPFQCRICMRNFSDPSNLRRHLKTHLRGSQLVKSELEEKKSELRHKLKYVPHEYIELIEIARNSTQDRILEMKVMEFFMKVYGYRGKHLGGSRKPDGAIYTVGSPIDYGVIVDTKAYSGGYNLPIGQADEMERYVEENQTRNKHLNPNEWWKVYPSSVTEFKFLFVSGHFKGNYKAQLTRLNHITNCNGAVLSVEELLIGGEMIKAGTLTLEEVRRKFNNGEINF", "test": "cell_activity; K562", "details": "tags: FokI obligate heterodimer; in vitro selection used in vitro-translated protein; chain copies: 2 (stated heterodimer)", "description": "(§1) PCR for 37 potential CCR5-224 substrates and 97 potential VF2468 substrates was performed with Phusion DNA Polymerase (NEB) and primers “[ZFN] […] fwd” and “[ZFN] […] rev” (Table 9) in 1× Phusion HF Buffer supplemented with 3% DMSO. Primers were designed using Primer3³³. The amplified DNA was purified with the Qiagen PCR Purification Kit, eluted with 10 mM Tris-HCl, pH 8.5, and quantified by 1K Chip on a LabChip GX instrument (Caliper Life Sciences) and combined into separate equimolar pools for the catalytically active and empty vector control samples. PCR products were not obtained for 3 CCR5 sites and 7 VF2468 sites, which excluded these samples from further analysis. Multiplexed Illumina library preparation was performed according to the manufacturer's specifications, except that AMPure XP beads (Agencourt) were used for purification following adapter ligation and PCR enrichment steps. Illumina indices 11 (“GGCTAC”) and 12 (“CTTGTA”) were used for ZFN-treated libraries while indices 4 (“TGACCA”) and 6 (“GCCAAT”) were used for the empty vector controls. Library concentrations were quantified by KAPA Library Quantification Kit for Illumina Genome Analyzer Platform (Kapa Biosystems). Equal amounts of the barcoded libraries derived from active- and empty vector-treated cells were diluted to 10 nM and subjected to single read sequencing on an Illumina HiSeq 2000 at the Harvard University FAS Center for Systems Biology Core facility. Sequences were analyzed using Protocol 9 for active ZFN samples and empty vector controls.", "units": {"activity": "% indels"}, "values": [{"binder": "VF2468 79 (dsDNA) DNA 1: AGCACCGTGGCTTCGAGTGAGGC DNA 2: GCCTCACTCGAAGCCACGGTGCT", "activity": 0.029}, {"binder": "VF2468 35 (dsDNA) DNA 1: AGCAGTGTCCTAAGGGGGTGAGGA DNA 2: TCCTCACCCCCTTAGGACACTGCT", "activity": 0.13}, {"binder": "VF2468 73 (dsDNA) DNA 1: AGCAAAGTCTGTACTGAGTGAGGG DNA 2: CCCTCACTCAGTACAGACTTTGCT", "activity": 1.3}, {"binder": "VF2468 28 (dsDNA) DNA 1: AGCAGCTTCTCCTGGGAGTGAGGG DNA 2: CCCTCACTCCCAGGAGAAGCTGCT", "activity": 0.32}, {"binder": "VF2468 11 (dsDNA) DNA 1: AGCAGCGTCTCCCTTGAGTGATGG DNA 2: CCATCACTCAAGGGAGACGCTGCT", "activity": 0.04}, {"binder": "VF2468 15 (dsDNA) DNA 1: AGCAACGTCATATTCAGTGAGGA DNA 2: TCCTCACTGAATATGACGTTGCT", "activity": 0.06}, {"binder": "VF2468 72 (dsDNA) DNA 1: AGAAACGTCGTGGAGGAGTGAGGG DNA 2: CCCTCACTCCTCCACGACGTTTCT", "activity": 0.042}, {"binder": "VF2468 78 (dsDNA) DNA 1: AGCAATGTCAAAAAGAGTGAGGC DNA 2: GCCTCACTCTTTTTGACATTGCT", "activity": 0.15}, {"binder": "VF2468 68 (dsDNA) DNA 1: AGCACCGTCCCCCTCAGTGAGGC DNA 2: GCCTCACTGAGGGGGACGGTGCT", "activity": 0.28}, {"binder": "VF2468 18 (dsDNA) DNA 1: AGCAGAGTCAGACTTGAGTGAGGT DNA 2: ACCTCACTCAAGTCTGACTCTGCT", "activity": 0.1}, {"binder": "VF2468 19 TTC4 (dsDNA) DNA 1: AGCAGAGTCTCTGAGAGTGAGGC DNA 2: GCCTCACTCTCAGAGACTCTGCT", "activity": 0.086}, {"binder": "VF2468 24 (dsDNA) DNA 1: AGCAGCGTATCACATGAGTGAGGG DNA 2: CCCTCACTCATGTGATACGCTGCT", "activity": 0.44}, {"binder": "VF2468 29 (dsDNA) DNA 1: AGCAGGGTCAGGGCTGAGTGAGGC DNA 2: GCCTCACTCAGCCCTGACCCTGCT", "activity": 0.2}, {"binder": "VF2468 23 (dsDNA) DNA 1: AGCAGCGACGCCTGGGAGTGAGGT DNA 2: ACCTCACTCCCAGGCGTCGCTGCT", "activity": 1.1}]}, {"biological_target": "T1, VF2468 ZFN heterodimer", "test": "cell_activity; K562; printed value", "details": "tags: FokI obligate heterodimer; in vitro selection used in vitro-translated protein; chain copies: 2 (stated heterodimer)", "description": "as §1", "units": {"activity": "% indels"}, "values": [{"binder": "VF2468 38 (dsDNA) DNA 1: AGCATCGTCTTCTGTGAGTGAGTA DNA 2: TACTCACTCACAGAAGACGATGCT", "activity": 0.082}, {"binder": "VF2468 69 MTX2 (dsDNA) DNA 1: AGCAGCGGCGGCTGCAGTGAGGC DNA 2: GCCTCACTGCAGCCGCCGCTGCT", "activity": 0.3}, {"binder": "VF2468 62 (dsDNA) DNA 1: TGCAGCGGCGTAGGGGAGTGAGGA DNA 2: TCCTCACTCCCCTACGCCGCTGCA", "activity": 0.085}, {"binder": "VF2468 66 GBF1 (dsDNA) DNA 1: AGCAACGTCCATAGTGTGTGAGAA DNA 2: TTCTCACACACTATGGACGTTGCT", "activity": 0.64}]}, {"biological_target": "CCR5-224 ZFN heterodimer (UniProt P14870; SEQ:1-353,SEQ:1-352)", "sequence (P14870 other isoform, or with tags, fused parts or gaps, chain 1 of 2)": "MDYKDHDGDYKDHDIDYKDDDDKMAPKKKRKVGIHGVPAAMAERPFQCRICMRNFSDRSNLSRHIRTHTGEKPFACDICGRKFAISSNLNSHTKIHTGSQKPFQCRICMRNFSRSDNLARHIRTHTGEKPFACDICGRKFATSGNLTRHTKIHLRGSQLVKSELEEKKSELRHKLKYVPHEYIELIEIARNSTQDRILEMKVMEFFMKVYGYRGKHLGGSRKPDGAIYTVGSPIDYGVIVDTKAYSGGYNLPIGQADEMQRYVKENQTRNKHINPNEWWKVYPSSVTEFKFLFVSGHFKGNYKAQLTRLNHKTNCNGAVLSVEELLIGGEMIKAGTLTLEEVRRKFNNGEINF", "sequence (P14870 other isoform, or with tags, fused parts or gaps, chain 2 of 2)": "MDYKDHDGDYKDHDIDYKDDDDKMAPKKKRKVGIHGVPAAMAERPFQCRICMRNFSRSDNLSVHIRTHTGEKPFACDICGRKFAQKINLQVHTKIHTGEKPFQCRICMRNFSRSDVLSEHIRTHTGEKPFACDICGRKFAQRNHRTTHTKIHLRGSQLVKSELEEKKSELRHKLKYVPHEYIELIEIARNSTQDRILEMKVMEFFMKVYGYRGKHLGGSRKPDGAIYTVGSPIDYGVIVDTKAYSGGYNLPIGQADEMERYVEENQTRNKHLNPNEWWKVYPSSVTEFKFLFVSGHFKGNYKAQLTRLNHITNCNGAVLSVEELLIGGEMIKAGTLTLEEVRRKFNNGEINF", "test": "cell_activity; K562; in vitro selected at 4 nM", "details": "tags: FokI obligate heterodimer; in vitro selection used in vitro-translated protein; chain copies: 2 (stated heterodimer)", "description": "as §1", "units": {"activity": "% indels"}, "values": [{"binder": "CCR5-224 25 WBSCR17 (dsDNA) DNA 1: GTTATCCTCAGCAAACTAAAACTGGAACAG DNA 2: CTGTTCCAGTTTTAGTTTGCTGAGGATAAC", "activity": 0.12}, {"binder": "CCR5-224 21 (dsDNA) DNA 1: GTCAACCTCAACACCTACAGACTGCAAAAG DNA 2: CTTTTGCAGTCTGTAGGTGTTGAGGTTGAC", "activity": 0.06}, {"binder": "CCR5-224 14 (dsDNA) DNA 1: GTCCTGCTCAGCAAAAGAAACTGAAAAAG DNA 2: CTTTTTCAGTTTCTTTTGCTGAGCAGGAC", "activity": 0.025}, {"binder": "CCR5-224 9 (dsDNA) DNA 1: GTCATCTTCATCAAAAGGAACTGCAAAAC DNA 2: GTTTTGCAGTTCCTTTTGATGAAGATGAC", "activity": 0.035}, {"binder": "CCR5-224 11 TACR3 (dsDNA) DNA 1: GTCATCTTCATCAGCATAAACTGTAAAGT DNA 2: ACTTTACAGTTTATGCTGATGAAGATGAC", "activity": 0.34}, {"binder": "CCR5-224 16 (dsDNA) DNA 1: GTCTTCCTGATGCTACCAAACTGGAAAAG DNA 2: CTTTTCCAGTTTGGTAGCATCAGGAAGAC", "activity": 0.019}, {"binder": "CCR5-224 15 KCNB2 (dsDNA) DNA 1: ATGTTCCTCATCTCCCGAAACTGCAAATG DNA 2: CATTTGCAGTTTCGGGAGATGAGGAACAT", "activity": 0.071}]}]}
